The record followed here is paper PMC6050537, “Inhibition of low-density lipoprotein receptor degradation with a cyclic peptide that disrupts the homodimerization of IDOL E3 ubiquitin ligase† †Electronic supplementary information (ESI) available. See DOI: 10.1039/c8sc01186a” (Chemical Science, 2018).

Usually Kd stands for the equilibrium constant for the complex coming apart.

Test [1] deals with T1, Full length IDOL (1–445) (UniProt Q8WY64 1-445, NT-647-NHS dye (only the labelled copy in the MST assays)). Briefly: cell-based or functional assay.
Test [2] concerns the target T1, Full length IDOL (1–445). Briefly: MST; Monolith NT.115; 6× His IDOL labelled with NT-647-NHS dye at 50 nM, peptides titrated; 10 mM HEPES, 300 mM NaCl, 1 mM TCEP, 0.05% TWEEN-20, pH 8.0, 5% DMSO. The note with it: both partners purified.

B1: RINGPep2 (cyclo-CF-Cha-LYT) (peptide)
chain: CFXLYT
HELM: PEPTIDE1{C.F.[Cha].L.Y.T}$PEPTIDE1,PEPTIDE1,1:R1-6:R2$$$V2.0
SMILES: CC(C)C[C@@H]1NC(=O)[C@H](CC2CCCCC2)NC(=O)[C@H](Cc2ccccc2)NC(=O)[C@H](CS)NC(=O)[C@H]([C@@H](C)O)NC(=O)[C@H](Cc2ccc(O)cc2)NC1=O
Take B1: the “EC50 of Tat-RINGPep2 (0–35 μM) on LDLR protein levels in HepG2 cells; blocks IDOL homodimerization” value in test [1] is 15 to 20 µM. This molecule also came in with a Kd in test [2] of 4.6 µM.
